Results reported in IntAct's records for PubMed 18001824.

B1: E3 ubiquitin-protein ligase RNF8 (Homo sapiens), O76064 (parent)
chain: MGEPGFFVTGDRAGGRSWCLRRVGMSAGWLLLEDGCEVTVGRGFGVTYQLVSKICPLMISRNHCVLKQNPEGQWTIMDNKSLNGVWLNRARLEPLRVYSIHQGDYIQLGVPLENKENAEYEYEVTEEDWETIYPCLSPKNDQMIEKNKELRTKRKFSLDELAGPGAEGPSNLKSKINKVSCESGQPVKSQGKGEVASTPSDNLDPKLTALEPSKTTGAPIYPGFPKVTEVHHEQKASNSSASQRSLQMFKVTMSRILRLKIQMQEKHEAVMNVKKQTQKGNSKKVVQMEQELQDLQSQLCAEQAQQQARVEQLEKTFQEEEQHLQGLEIAQGEKDLKQQLAQALQEHWALMEELNRSKKDFEAIIQAKNKELEQTKEEKEKMQAQKEEVLSHMNDVLENELQCIICSEYFIEAVTLNCAHSFCSYCINEWMKRKIECPICRKDIKSKTYSLVLDNCINKMVNNLSSEVKERRIVLIRERKAKRLF

Variants of: B1
Settings: with mdc1_human MDC1, Q14676
Chain of mdc1_human MDC1, Q14676 (Q14676 whole entry): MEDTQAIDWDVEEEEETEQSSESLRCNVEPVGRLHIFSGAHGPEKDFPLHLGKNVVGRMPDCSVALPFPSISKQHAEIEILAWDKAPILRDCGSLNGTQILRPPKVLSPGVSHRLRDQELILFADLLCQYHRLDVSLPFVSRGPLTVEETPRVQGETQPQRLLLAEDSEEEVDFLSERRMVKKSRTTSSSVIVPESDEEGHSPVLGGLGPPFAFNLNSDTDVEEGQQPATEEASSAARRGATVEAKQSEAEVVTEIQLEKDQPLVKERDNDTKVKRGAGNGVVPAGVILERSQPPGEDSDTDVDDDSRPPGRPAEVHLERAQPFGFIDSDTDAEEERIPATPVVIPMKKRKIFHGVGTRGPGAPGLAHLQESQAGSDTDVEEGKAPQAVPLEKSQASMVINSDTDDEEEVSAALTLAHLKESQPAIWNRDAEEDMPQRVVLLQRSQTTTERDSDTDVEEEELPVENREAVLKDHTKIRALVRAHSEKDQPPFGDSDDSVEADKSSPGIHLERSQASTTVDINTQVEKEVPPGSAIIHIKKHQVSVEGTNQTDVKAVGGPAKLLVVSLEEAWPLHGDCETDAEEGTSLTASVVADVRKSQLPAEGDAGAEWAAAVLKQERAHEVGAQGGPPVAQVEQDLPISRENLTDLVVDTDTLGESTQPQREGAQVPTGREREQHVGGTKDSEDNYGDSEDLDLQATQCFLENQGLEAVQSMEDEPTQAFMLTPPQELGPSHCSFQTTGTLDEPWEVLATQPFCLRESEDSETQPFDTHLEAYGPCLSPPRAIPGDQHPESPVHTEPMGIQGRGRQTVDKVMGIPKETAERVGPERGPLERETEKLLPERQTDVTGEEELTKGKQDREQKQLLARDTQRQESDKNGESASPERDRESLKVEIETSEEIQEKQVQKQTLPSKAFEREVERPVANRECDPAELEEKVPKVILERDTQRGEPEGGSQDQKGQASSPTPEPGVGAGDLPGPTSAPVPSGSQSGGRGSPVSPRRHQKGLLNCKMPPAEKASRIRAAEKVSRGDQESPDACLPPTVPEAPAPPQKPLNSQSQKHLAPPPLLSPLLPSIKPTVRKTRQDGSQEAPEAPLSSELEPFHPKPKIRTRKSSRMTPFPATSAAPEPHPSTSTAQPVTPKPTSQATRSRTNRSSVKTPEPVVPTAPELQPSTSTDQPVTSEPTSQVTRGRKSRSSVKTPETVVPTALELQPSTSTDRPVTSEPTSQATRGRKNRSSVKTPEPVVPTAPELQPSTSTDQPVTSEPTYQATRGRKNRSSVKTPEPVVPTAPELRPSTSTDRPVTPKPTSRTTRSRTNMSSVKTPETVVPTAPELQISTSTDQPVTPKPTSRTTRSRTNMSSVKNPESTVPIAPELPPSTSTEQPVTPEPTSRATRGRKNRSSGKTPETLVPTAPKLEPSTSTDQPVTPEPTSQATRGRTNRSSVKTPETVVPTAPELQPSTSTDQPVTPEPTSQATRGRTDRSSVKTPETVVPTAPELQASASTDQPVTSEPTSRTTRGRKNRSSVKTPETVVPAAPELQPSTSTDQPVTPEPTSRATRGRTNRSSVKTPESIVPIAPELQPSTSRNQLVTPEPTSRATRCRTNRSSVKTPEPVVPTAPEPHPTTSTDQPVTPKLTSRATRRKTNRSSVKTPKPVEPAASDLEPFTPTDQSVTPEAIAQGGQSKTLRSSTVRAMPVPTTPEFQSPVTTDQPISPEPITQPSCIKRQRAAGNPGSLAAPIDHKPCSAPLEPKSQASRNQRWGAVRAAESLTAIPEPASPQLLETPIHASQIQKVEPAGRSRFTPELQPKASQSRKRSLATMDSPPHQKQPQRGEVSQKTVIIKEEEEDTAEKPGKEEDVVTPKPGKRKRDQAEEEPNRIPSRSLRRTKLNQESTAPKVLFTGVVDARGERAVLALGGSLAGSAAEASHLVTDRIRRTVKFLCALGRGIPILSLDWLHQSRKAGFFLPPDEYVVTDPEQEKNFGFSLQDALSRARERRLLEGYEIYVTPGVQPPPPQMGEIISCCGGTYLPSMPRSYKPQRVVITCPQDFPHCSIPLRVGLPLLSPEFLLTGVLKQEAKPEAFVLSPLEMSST

| Variant | effect of a mutation on the interaction |
| --- | --- |
| R42A | disrupting interaction |
